Laboratory results from patent publication US10434170B2, “Immunoregulatory vaccine” (S-TARGET THERAPEUTICS GMBH, priority 2012, dated 2019).
Where no end group is shown, it is not given here. [ ]: non-standard residue; d: D form. pGlu = O=C1CC[C@@H](C(=O)O)N1

Columns and labels:
[1] = system: autologous little gastrin (G17RM); assay: Cynomolgus monkeys immunized, serum IgG (MSD multiplex ELISA) against autologous little gastrin; assay type: in vivo, rhesus and cynomolgus monkey; conditions: 6 Cynomolgus monkeys, immunized d0, d14, d28; serum d0-d56
Text: Time curve IgG anti G17 induction, after three injections with the vaccine (TYG100_2RM) on d0, d14 and d28. • A significant IgG induction was seen against the ScFV-coil1 and G17RM and G17H. No response was seen against a control peptide of similar molecular weight or when the animals were immunized with G17RM_2 without the presence of warhead.
6 Cynomolgus monkeys were immunized with TYG100_2RM and 6 were immunized with G17RM_2-coil on d0, d14 and d28. On d0, d14, d28, 42 and d56 serum was analyzed for the presence of IgG antibodies against autologous little gastrin (G17RM), little gastrin from humans (G17H), an irrelevant control peptide of similar MW as gastrin (control peptide) or against warhead (ScFV-coil1) using the multiplex ELISA system of Meso Scale Discovery (MSD) according to the MSD manual. […] The response against G17RM after three immunizations was 75% of the response against ScFV-coil1. This is remarkable since G17RM is a 100% autologous protein of only ˜1.2 kDa whereas ScFV-coil1 is a 100% allogeneic protein of >30 kDa. The anti G17RM antibodies cross reacted strongly with G17H. There was no response against G17RM when the G17RM_2-coil peptide was used without the warhead.

[2] = system: G17RM; assay: Balb/c mice immunized with TYG100 vaccine, serum IgG titre against G17RM; assay type: in vivo, mouse; conditions: peptide immunized without the warhead, Example 14
Description: (§1) 6 Balb/c Mice were immunized 3 times on day 0, day 14 and day 35 with TYG100_1RM or G17_1RM (without warhead) containing rhesus monkey G17 (58.4 μg/shot in 0.5 ml). Two weeks after last immunization, serum was taken and analyzed for the presence of IgG antibodies against G17RM, G17H and G17M (=G17 from the mouse)
as §1, with “TYG100_2RM” for “TYG100_1RM or G17_1RM (without warhead)”, “containing the first 13 immuno acids of” for “containing”, “(66.8” for “(58.4”

[3] = system: PBMC of Der p1 sensitized normal donors; assay: Stimulation of human PBMC with immunogen 5-12, IL-10 and IFNg ELISA (Example 10); assay type: cell-based; conditions: 24 h, 5, 1 or 0.5 μg/ml vs 3 μg/ml Der p1
Description: PBMCs of healthy human donors were cultured for 24 h in triplicate with Der p1 or immunogen 5. Supernatants were harvested and assayed for IL-10 and […] levels (each indicated as pg/ml; BDL=below detection limit) • Human T cells respond equally well to immunogen 5 as to Der p1, as measured by IL-10 and IFNg induction.
PBMC (100.000/well) of Der p1 sensitized normal donors were cultured in triplicate with medium, 3 μg/ml Der p1 or 5, 1 or 0.5 μg/ml immunogen 5-12 (Immo5-12) at 37° C./5% CO2 for 24 h. Supernatants were assayed in duplicate for IL-10 and IFNg levels using a commercially-available ELISA kits (eBioscience) in accordance with the manufacturer's instructions.

[4] = system: PBMC of Der p1 sensitized rhesus monkeys; assay: Proliferation ([3H]-thymidine) of PBMC of Der p1 sensitized rhesus monkeys (Example 6); assay type: cell-based, rhesus monkeys (macaca mulatta); conditions: 3 and 5 μg/ml immunogen 3 vs Der p1, 2-day culture, 20 U/ml IL-2
Description: (§2) PBMCs from Der p1 sensitized rhesus monkeys (macaca mulatta) were cultured in triplicate with Der p1 or immunogen 3. Proliferation was assayed by the incorporation of [^3H]-thymidine. Results are shown as counts per minute.
(§3) PBMC (100.000/well) of Der p1 sensitized rhesus monkeys (macaca mulatta) were cultured in triplicate with medium, 3 Der p1 or 3 and 5 μg/ml immunogen 3 at 37° C./5% CO2. in the presence of 20 U/ml IL-2. Proliferation was assayed by the incorporation of [^3H]-thymidine (0.5 μCi/well) during the final 18 hrs of a 2-day culture. Cells were harvested for β-scintillation counting (Topcount NXT, Packard, Ramsey, Minn., USA). Results are shown as counts per minute. In addition from parallel cultures, supernatants were assayed in duplicate for IL-10 and GM-CSF levels using a commercially-available ELISA kit (U-Cytech, Utrecht, The Netherlands) in accordance with the manufacturer's instructions.

[5] = system: PBMC of Der p1 sensitized rhesus monkeys; assay: IL-10 and GM-CSF ELISA in supernatants of PBMC of Der p1 sensitized rhesus monkeys (Example 6); assay type: cell-based, rhesus monkeys (macaca mulatta); conditions: 3 and 5 μg/ml immunogen 3 vs Der p1, parallel cultures
Description: as §2, §3

[6] = system: PBMC of Der p1 sensitized rhesus monkeys; assay: Warhead mediated enhanced antigen presentation, PBMC proliferation (Example 7); assay type: cell-based, rhesus monkeys (macaca mulatta)
Description: […] proliferation (assayed by the incorporation of [^3H]-thymidine) of Rhesus monkey (macaca mulatta) T cells after pre incubation for 30 ‘on ice with respectively warhead and Der p1 or warhead and immunogen 3. After each pre-incubation the cells were washed. (bdl=below detection limit). • Only when the immunogen could interact with the warhead through its coil (immunogen3) T cell proliferation in a dose dependent fashion could be seen. […] As positive control Der p1 is shown to be reactive after overnight incubation (without washing). • Warhead mediated antigen uptake is more efficient than uptake through pinocytosis
PBMC (100.000/well) of Der p1 sensitized rhesus monkeys (macaca mulatta) were preincubated (30 min on ice) with 1 μg/ml of warhead ScFV and washed 3 times with PBS or preincubated with PBS only and washed three times. Subsequently these cells incubated (30 min on ice) with different concentrations of Immunogen 3 or Der p1 at 3 μg/ml and washed 3 times with PBS after which the cells were culture at 37° C./5% CO2 in the presence of 20 U/ml IL-2 for 48 hours. As a positive control PBMCs (without warhead preincubation) were incubated with 3 μg/ml Der Pb without washing and cultured at 37° C./5% CO2 in the presence of 20 U/ml IL-2. Proliferation was assayed by the incorporation of [^3H]-thymidine (0.5 μCi/well) during the final 18 hrs of a 2-day culture. Cells were harvested for β-scintillation counting (Topcount NXT, Packard, Ramsey, Minn., USA). Results are shown as counts per minute.

[7] = system: ScFV-1-coil; assay: Mice immunized with ScFV-1-coil or warhead, serum IgG1 and IgG2a ELISA against ScFV-1-coil; assay type: in vivo; conditions: s.c. 2× 35 μg d0, d14, on Alum or in PBS, sera day 28
Description: (§4) 24 mice (6/group) were immunized s.c. 2× with 35 μg in 150 μl ScFV-1-coil or with warhead (ScFV-1-coil-M362) either formulated on Alum or diluted in PBS. Immunizations were done on d0, and d14, sera were taken on d0 (before immunization) and d28 and analyzed for IgG1 and IgG2a against ScFV-1-coil (indicated as ScFV) and mAb IV.3 by standard ELISA.

[8] = system: mAb IV.3; assay: Mice immunized with ScFV-1-coil or warhead, serum IgG1 and IgG2a ELISA against mAb IV.3; assay type: in vivo, mouse; conditions: s.c. 2× 35 μg d0, d14, on Alum or in PBS, sera day 28
Description: as §4

[9] = PBMC preincubated with 1 μg/ml warhead ScFV, washed, incubated 30 min on ice with antigen, cultured 48 hours

## G17RM_2-coil: SEQ ID 103: two rhesus monkey gastrin peptides of SEQ ID 99, branched linker and pepK coil (EGPWMEEEEAAYGGGK(EGPWMEEEEAAYGGG)GGSGGKVSALKEKVSALKEKVSALKEKVSALKEKVSALKE)
[1]
  IgG response to G17RM: no response

## [pGlu]GPWMEEEEAAYGGGSGGKVSALKEKVSALKEKVSALKEKVSALKEKVSALKE [G17-peptide]
[2]
  response against G17: no response

B1: immunogen 5: SEQ ID 30/75: ~29 T cell epitopes of ten Der p allergens with His tag, linkers and pepK coil (protein)
chain 1: GVLACAIATHAKIREQERLVKLETVKKSLEQEVRTLHVRIEEVEANALAGGDLRQMRTVTPIRMQGGCGSCWEAHEQQIRIMTTKLKEAEARQQYDIKYTWNVPKIAVNIVGYSNAQGVDYWIVRNSWDTNWYHNPHFIGNRSVITHLMEDLKGELDMRNIQVRGLKQMKRVGDANVKSEDDAFRHYDGRTIIQRDNGYQPNYLDEYWILTAAHCVDGQTVSKLIRSKVLGEKISYYRYVAREQSCRRPNAQRFGISNYCVVVTVKVMGDDELHTYFNVNYTMHYYLNNGATRDILDEYWILTAAHCVAGQTASKLSIRYNSLKHSLFKYRPFKVNELNLEGEFGRELQHKFRLMRNSQMEVEEGGGSHHHHHHGGGSCGGKVSALKEKVSALKEKVSALKEKVSALKEKVSALKE
chain 2: GVLACAIATHAKIREQERLVKLETVKKSLEQEVRTLHVRIEEVEANALAGGDLRQMRTVTPIRMQGGCGSCWEAHEQQIRIMTTKLKEAEARQQYDIKYTWNVPKIAVNIVGYSNAQGVDYWIVRNSWDTNWYHNPHFIGNRSVITHLMEDLKGELDMRNIQVRGLKQMKRVGDANVKSEDDAFRHYDGRTIIQRDNGYQPNYLDEYWILTAAHCVDGQTVSKLIRSKVLGEKISYYRYVAREQSCRRPNAQRFGISNYCVVVTVKVMGDDELHTYFNVNYTMHYYLNNGATRDILDEYWILTAAHCVAGQTASKLSIRYNSLKHSLFKYRPFKVNELNLEGEFGRELQHKFRLMRNSQMEVEEGGGSHHHHHHGGGSCGGKVSALKEKVSALKEKVSALKEKVSALKEKVSALKE
modifications: Immunogen-coil
[3]
  IFNg induction, response compared with Der p1: equally well
  IL-10 induction, response compared with Der p1: equally well

B2: immunogen 3: SEQ ID 23/74: Der P1 and Der P2 T cell epitopes with His tag, linker and pepK coil (protein)
chain 1: HHHHHHYYRYVAREQSCRRPNAQRFGISNYCQIYPPNVNKIREALAQTHSAIAVDLRQMRTVTPIRMQGGCGSCWAFSGVAATESAYLQQYDIKYTWNVPKIAPKSENVVVTVKVMGDDGVLACAIATHAKIRDDAFRHYDGRTIIQRDNGYQPNYHAVNIVGYSNAQGVDYWIVRNSWDTNWHEIKKVLVPGCHGSEPCIIHRGKPFGGGSGGGSCGGKVSALKEKVSALKEKVSALKEKVSALKEKVSALKE
chain 2: HHHHHHYYRYVAREQSCRRPNAQRFGISNYCQIYPPNVNKIREALAQTHSAIAVDLRQMRTVTPIRMQGGCGSCWAFSGVAATESAYLQQYDIKYTWNVPKIAPKSENVVVTVKVMGDDGVLACAIATHAKIRDDAFRHYDGRTIIQRDNGYQPNYHAVNIVGYSNAQGVDYWIVRNSWDTNWHEIKKVLVPGCHGSEPCIIHRGKPFGGGSGGGSGGKVSALKEKVSALKEKVSALKEKVSALKEKVSALKE
modifications: Immunogen-coil
[4]
  proliferation, response compared with Der p1: non-significant difference
[5]
  cytokine production (IL-10 and GM-CSF), response compared with Der p1: non-significant difference
[6]; [9]
  proliferation of PBMC: dose dependent stimulation
[6]; after warhead ScFV preincubation, positive control = PBMC cultured 48 h with 3 μg/ml Der p1 without washing
  stimulation relative to positive control: even higher than the positive control
[6]; preincubated immunogen in the absence of warhead (data not shown)
  proliferation of PBMC: did not lead to proliferation

B3: warhead (conjugate)
scFv: EVQLQQSGPELKKPGETVKISCKASGYTFTNYGMNWVKQAPGKGLKWMGWLNTYTGESIYPDDFKGRFAFSSETSASTAYLQINNLKNEDMATYFCARGDYGYDDPLDYWGQGTSVTVSSGGGGSGGGGSGGGGSDIVMTQAAPSVPVTPGESVSISCRSSKSLLHTNGNTYLHWFLQRPGQSPQLLIYRMSVLASGVPDRFSGSGSGTAFTLSISRVEAEDVGVFYCMQHLEYPLTFGAGTKLELKGSISAWSHPQFEKGPEVSALEKEVSALEKEVSALEKEVSALEKEVSALEK
[7]
  IgG1 response to ScFV-1-coil: strong
  IgG2a response to ScFV-1-coil: strong
[8]
  IgG1 response to mAb IV.3: strong
  IgG2a response to mAb IV.3: strong

B4: ScFV-1-coil: SEQ ID 70: ScFV derived from anti-CD32a mAb IV.3 with StrepTag II and pepE coil (protein)
scFv: EVQLQQSGPELKKPGETVKISCKASGYTFTNYGMNWVKQAPGKGLKWMGWLNTYTGESIYPDDFKGRFAFSSETSASTAYLQINNLKNEDMATYFCARGDYGYDDPLDYWGQGTSVTVSSGGGGSGGGGSGGGGSDIVMTQAAPSVPVTPGESVSISCRSSKSLLHTNGNTYLHWFLQRPGQSPQLLIYRMSVLASGVPDRFSGSGSGTAFTLSISRVEAEDVGVFYCMQHLEYPLTFGAGTKLELKGSISAWSHPQFEKGPEVSALEKEVSALEKEVSALEKEVSALEKEVSALEK
modifications: ScFV-coil
[7]
  IgG1 response to ScFV-1-coil: only in the presence of Alum
  IgG2a response to ScFV-1-coil: no IgG2a response

B5: Der p1: house dust mite allergen used as comparator antigen (protein)
chain: TNACSINGNAPAEIDLRQMRTVTPIRMQGGCGSCWAFSGVAATESAYLAYRNQSLDLAEQELVDCASQHGCHGDTIPRGIEYIQHNGVVQESYYRYVAREQSCRRPNAQRFGISNYCQIYPPNVNKIREALAQTHSAIAVIIGIKDLDAFRHYDGRTIIQRDNGYQPNYHAVNIVGYSNAQGVDYWIVRNSWDTNWGDNGYGYFAANIDLMMIEEYPYVVIL
[6]; [9]
  proliferation of PBMC: did not lead to proliferation
